How the values were obtained:
[1] = biological target: T1, Avi-human CD38 ECD (human, UniProt P28907 43-300); test: ELISA on human CD38 ECD; class A = EC50 0.02 nM - 0.1 nM (table legend)
T1 construct: eluted as a monomer; also called hCD38; huCD38

[2] = biological target: T2, CD38 on the surface of tumor cells (human, UniProt P28907 1-300); test: cell-based or functional assay
[3] = biological target: T2, CD38 on the surface of tumor cells; test: cell-based or functional assay; remark: listed apart in the source
[4] = biological target: T1, Avi-human CD38 ECD; test: SPR
[5] = biological target: T1, Avi-human CD38 ECD; test: ELISA on human CD38 ECD; class B = EC50 0.1 nM - 0.5 nM (table legend)
[6] = biological target: T3, Human ICAM1 ECD-Avi (human, UniProt P05362 28-480); test: SPR
T3 construct: eluted as a monomer; also called hICAM1; recombinant ICAM1

[7] = biological target: T3, Human ICAM1 ECD-Avi; test: SPR (Biacore 8K), antibody captured, monomeric ICAM1 ECD injected
Experimental: (§1) Furthermore, binding kinetics measurements of the anti-CD38 and anti-ICAM1 antibodies were not affected by antibody valency in the SPR assays because antibodies were immobilized and challenged with monomeric antigens. SPR was performed on a Biacore 8K instrument (GE Healthcare). Antibodies were captured on Biacore Series S CM5 sensor chips coated with a monoclonal mouse anti-human IgG (Fc) antibody (GE Healthcare human antibody capture kit). Serial 3-fold dilutions of antigen (CD38 ECD or ICAM1 ECD) were injected at a flow rate of 30 µl/min. Each sample was analyzed with 1 min association and 10 min dissociation at room temperature (25° C.). After each injection, the chip was regenerated using 3 M MgCl₂. A 1:1 Langmuir model of simultaneous fitting of kₒₙ and koff was used for kinetics analysis.

[8] = biological target: T4, ICAM1 on the surface of tumor cells (human, UniProt P05362 28-532); test: flow cytometry on DU145 cells
T4 construct: whole, on cells; also called ICAM1 on DU145 cells; ICAM1 on the surface of Daudi cells
Experimental: (§2) Surface expression of CD38 and ICAM1 on the transformed cell lines was quantified by flow cytometry. Harvested cells were centrifuged at 2000 rpm for 5 min, resuspended in 10 - 15 ml ice-cold culture medium, and then counted. Then, 3×10⁶ cells were resuspended per ml of blocking buffer (PBS plus 2% FBS). 100 µl of the cell suspension was dispensed into each well of a 96-well plate and incubated at room temperature for 10-20 min. […] While incubating, purified antibodies were diluted to the desired dilution with blocking buffer. After a 10-20 minutes incubation, cells were centrifuged for 5 minutes at 2000 rpm in a refrigerated centrifuge. Blocking buffer was aspirated, and the cells were resuspended in 100 µl/well diluted antibodies and incubated for 1 hour at 4° C. The cells were then washed 3 times with PBS plus 2% FBS. […] The cells were then washed 3 times with 200 µl PBS by centrifuging at 2000 rpm for 5 min. After the last wash, the cells were resuspended in 300 µl cold PBS and analyzed on a FACSVerse™ (BD Biosciences) flow cytometer.
(§3) Binding of the chimeric anti-CD38 and anti-ICAM1 antibodies to proteins on the surface of tumor cells was determined by flow cytometry, as described above.

[9] = biological target: T3, Human ICAM1 ECD-Avi; test: ELISA, plate coated with recombinant ICAM1
Experimental: (§4) A 96-well plate was coated overnight at 4° C. with 1 µg/ml recombinant CD38 or ICAM1. After washing 3 times, the plate was blocked with 300 µl 1% BSA in PBST at 37° C. for 1 hour. Serially diluted antibodies were added and incubated at 37° C. for 1 hour. The plate was then washed 4 times with PBST and incubated with 1:5000 diluted 2nd antibody (Sigma, Cat# A0293) at 37° C. for 1 hour.

[10] = biological target: T4, ICAM1 on the surface of tumor cells; test: flow cytometry on Daudi cells; lower end of the range; Daudi cells
Experimental: as §2

[11] = biological target: T1, Avi-human CD38 ECD; test: ELISA, plate coated with recombinant CD38
Experimental: as §4

[12] = biological target: T2, CD38 on the surface of tumor cells; test: flow cytometry on Daudi cells
Experimental: as §2, §3

[13] = biological target: T1, Avi-human CD38 ECD; test: SPR (Biacore 8K), antibody captured, monomeric CD38 ECD injected
Experimental: as §1

B1: h18E4-19 (antibody, V domains shown)
VH: EVQLLESGGGLVQPGGSLRLSCAASGFSFNNYWIIWIRQAPGKGLEWVAAIYSPSGDIKYYADWAKGRFTVSKDNSKNTVYLQMNSLRAEDTAVYYCARELSGSSYEGYFESWGQGTLVTV
VL: DIQLTQSPSTLSASVGDRVTITCRSSQSVYGHNWLAWYQQKPGKAPKLLMYRASNLASGVPSRFSGSGSGTEFTLTISSVQPDDFATYYCQGYYSGGSYAFGGGTKVEIK
notes: also called hu18E4-19; humanized h18E4-19 antibody
B1 was tested, and the EC50 [1] was 20 to 100 pM, the “ADCC EC50 on Daudi cells; antibody made in CHO” value [2] was 12.7 pM and the “ADCC EC50 on Daudi cells; antibody made in CHO FUT8 -/- (afucosylated)” value [2] was 0.4 pM. For the same binder, the “ADCC EC50 on HuNS1 cells; antibody made in CHO” value [2] was 80 pM, the “ADCC EC50 on HuNS1 cells; antibody made in CHO FUT8 -/- (afucosylated)” value [2] was 80 pM and the “ADCC EC50 on Raji cells; antibody made in CHO” value [2] was 14 pM. The “ADCC EC50 on Raji cells; antibody made in CHO FUT8 -/- (afucosylated)” value [2] was 8 pM and the “ADCC on Daudi cells, EC50” value [3] was 0.05 to 0.1 pM.

B2: h18E4-13 (antibody, V domains shown)
VH: EVQLLESGGGLVQPGGSLRLSCAASGFSFNNYWICWIRQAPGKGLEWVACIYSPSGDIKYYADWAKGRFTVSKDNSKNTVYLQMNSLRAEDTAVYYCARELSGSSYEGYFESWGQGTLVTVSS
VL: DIQLTQSPSTLSASVGDRVTITCRSSQSVYGHNWLAWYQQKPGKAPKLLMYRASNLASGVPSRFSGSGSGTEFTLTISSVQPDDFATYYCQGYYSGGSYAFGGGTKVEIK
B2: binds [4].

B3: h18E4-19 LC Y96A (antibody, V domains shown)
VH: EVQLLESGGGLVQPGGSLRLSCAASGFSFNNYWIIWIRQAPGKGLEWVAAIYSPSGDIKYYADWAKGRFTVSKDNSKNTVYLQMNSLRAEDTAVYYCARELSGSSYEGYFESWGQGTLVTV
VL: DIQLTQSPSTLSASVGDRVTITCRSSQSVYGHNWLAWYQQKPGKAPKLLMYRASNLASGVPSRFSGSGSGTEFTLTISSVQPDDFATYYCQGYYSGGSAAFGGGTKVEIK
notes: Alanine scan variant of h18E4-19; Kabat numbers, not linear positions of the entry
B3 gave an EC50 [5] of 100 to 500 pM.

B4: h18E4-19 LC S93A (antibody, V domains shown)
VH: EVQLLESGGGLVQPGGSLRLSCAASGFSFNNYWIIWIRQAPGKGLEWVAAIYSPSGDIKYYADWAKGRFTVSKDNSKNTVYLQMNSLRAEDTAVYYCARELSGSSYEGYFESWGQGTLVTV
VL: DIQLTQSPSTLSASVGDRVTITCRSSQSVYGHNWLAWYQQKPGKAPKLLMYRASNLASGVPSRFSGSGSGTEFTLTISSVQPDDFATYYCQGYYAGGSYAFGGGTKVEIK
notes: as for B3
Binder B4 has an EC50 [5] of 100 to 500 pM.

B5: h18E4-19 LC G90A (antibody, V domains shown)
VH: EVQLLESGGGLVQPGGSLRLSCAASGFSFNNYWIIWIRQAPGKGLEWVAAIYSPSGDIKYYADWAKGRFTVSKDNSKNTVYLQMNSLRAEDTAVYYCARELSGSSYEGYFESWGQGTLVTV
VL: DIQLTQSPSTLSASVGDRVTITCRSSQSVYGHNWLAWYQQKPGKAPKLLMYRASNLASGVPSRFSGSGSGTEFTLTISSVQPDDFATYYCQAYYSGGSYAFGGGTKVEIK
notes: as for B3
Work on B5 yielded an EC50 [5] of 100 to 500 pM.

B6: αCD38(scFv) x αICAM1 (bispecific antibody, human IgG1, kappa)
heavy: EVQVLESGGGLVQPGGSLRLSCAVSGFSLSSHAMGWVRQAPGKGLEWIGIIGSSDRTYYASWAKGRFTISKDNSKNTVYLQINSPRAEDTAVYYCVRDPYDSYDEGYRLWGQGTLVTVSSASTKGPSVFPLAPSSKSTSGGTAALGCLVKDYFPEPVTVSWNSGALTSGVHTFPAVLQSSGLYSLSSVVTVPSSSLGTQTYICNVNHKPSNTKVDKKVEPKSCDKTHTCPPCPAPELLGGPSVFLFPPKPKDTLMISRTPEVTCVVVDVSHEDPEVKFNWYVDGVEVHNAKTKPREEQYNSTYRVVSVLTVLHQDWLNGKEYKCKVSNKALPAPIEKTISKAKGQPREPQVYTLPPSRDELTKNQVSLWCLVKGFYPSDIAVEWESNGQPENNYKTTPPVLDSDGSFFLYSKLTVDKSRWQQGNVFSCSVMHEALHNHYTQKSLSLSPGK
light: DIQMTQSPSTLSASVGDRVTITCQASQSIYRYLSWYQQKPGKAPKFLIYDASKLASGVPSRFSGSGSGTEFTLTISSVQPDDFATYYCQQAYSSGSIDNAFGGGTKVEIKRTVAAPSVFIFPPSDEQLKSGTASVVCLLNNFYPREAKVQWKVDNALQSGNSQESVTEQDSKDSTYSLSSTLTLSKADYEKHKVYACEVTHQGLSSPVTKSFNRGEC
scFv: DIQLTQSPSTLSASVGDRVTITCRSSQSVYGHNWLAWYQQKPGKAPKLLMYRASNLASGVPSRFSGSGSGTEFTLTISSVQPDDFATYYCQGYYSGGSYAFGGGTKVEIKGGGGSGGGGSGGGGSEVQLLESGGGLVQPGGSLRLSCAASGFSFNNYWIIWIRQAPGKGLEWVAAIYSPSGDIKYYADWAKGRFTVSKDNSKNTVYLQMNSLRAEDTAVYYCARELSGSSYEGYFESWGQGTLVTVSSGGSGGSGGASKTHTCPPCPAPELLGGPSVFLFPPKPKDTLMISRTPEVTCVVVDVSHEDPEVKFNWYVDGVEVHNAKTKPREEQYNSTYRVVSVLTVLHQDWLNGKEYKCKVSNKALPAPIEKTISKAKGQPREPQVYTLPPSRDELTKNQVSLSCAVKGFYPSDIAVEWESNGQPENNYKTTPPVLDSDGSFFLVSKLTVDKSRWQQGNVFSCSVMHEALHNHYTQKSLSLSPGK
notes: h11F2-6 Fab arm on Fc-knob, h18E4-19 scFv on Fc-hole; IgG1 Fc; also called three chain bispecific antibody; scFv format bispecific antibody
Binder B6 has a Kd [6] of 100 to 150 pM and a Kd [4] of 2000 to 5000 pM.

B7: αCD38(TCR) x αICAM1 (bispecific antibody, human IgG1, kappa)
heavy 1: EVQLLESGGGLVQPGGSLRLSCAASGFSFNNYWIIWIRQAPGKGLEWVAAIYSPSGDIKYYADWAKGRFTVSKDNSKNTVYLQMNSLRAEDTAVYYCARELSGSSYEGYFESWGQGTLVTVLEDLKNVFPPEVAVFEPSEAEISHTQKATLVCLATGFYPDHVELSWWVNGKEVHSGVCTDPQPLKEQPALQDSRYALSSRLRVSATFWQNPRNHFRCQVQFYGLSENDEWTQDRAKPVTQIVSAEAWGRASDKTHTCPPCPAPELLGGPSVFLFPPKPKDTLMISRTPEVTCVVVDVSHEDPEVKFNWYVDGVEVHNAKTKPREEQYNSTYRVVSVLTVLHQDWLNGKEYKCKVSNKALPAPIEKTISKAKGQPREPQVCTLPPSREEMTKNQVSLSCAVKGFYPSDIAVEWESNGQPENNYKTTPPVLDSDGSFFLVSKLTVDKSRWQQGNVFSCSVMHEALHNHYTQKSLSLSPG
light 1: DIQLTQSPSTLSASVGDRVTITCRSSQSVYGHNWLAWYQQKPGKAPKLLMYRASNLASGVPSRFSGSGSGTEFTLTISSVQPDDFATYYCQGYYSGGSYAFGGGTKVEIKPDIQNPDPAVYQLRDSKSSDKSVCLFTDFDSQTQVSQSKDSDVYITDKCVLDMRSMDFKSNSAVAWSQKSDFACANAFQNSIIPEDTFFPSPESS
heavy 2: not shown
light 2: DIQMTQSPSTLSASVGDRVTITCQASQSIYRYLSWYQQKPGKAPKFLIYDASKLASGVPSRFSGSGSGTEFTLTISSVQPDDFATYYCQQAYSSGSIDNAFGGGTKVEIKRTVAAPSVFIFPPSDEQLKSGTASVVCLLNNFYPREAKVQWKVDNALQSGNSQESVTEQDSKDSTYSLSSTLTLSKADYEKHKVYACEVTHQGLSSPVTKSFNRGEC
notes: also called TCR format bispecific antibody; TCR-chimera bispecific antibody
B7 was tested, and the Kd [6] was 100 to 150 pM and the Kd [4] was 2000 to 5000 pM.

B8: anti-ICAM1 chimeric monoclonal antibody 11F2 (antibody, human IgG1, kappa, V domains shown)
VH: QSVEESGGGLVKPGGTLTLTCTVSGFSLSSHAMGWVRQAPGKGLEYIGIIGSSDRTYYASWAKGRFTISKTSTTVDLKITSPTTEDTATYFCVRDPYDSYDDGYRLWGPGTLVTVSS
VL: AYDMTQTPASVEVAVGGTVTIKCQASQSIYRYLSWYQKKPGQRPKFLIYDASKLASGVPSRFEGSGSGTEFTLTISGAQSDDAATYYCQQAYSSGSIDNAFGGGTEVVVKR
notes: Rabbit variable domains on human IgG1 / human kappa constant regions; also called chimeric 11F2
B8 was tested, and the Kd [7] was 100 to 500 pM, the EC50 [8] was 1000 to 1500 pM and the EC50 [9] was roughly 50 pM.

B9: anti-ICAM1 chimeric monoclonal antibody 8B12 (antibody, human IgG1, kappa, V domains shown)
VH: QSVEESGGGLVKPGGTLTLTCTVSGFSLSTHAMGWVRQAPGKGLEYIGIIGSSDRTYYASWAKGRFTISKTSTTVDLKITSPTTEDTATYFCVRDPYDSFDDGYRLWGPGTLVTVSS
VL: AYDMTQTPASVEVAVGGTVTIKCQASQSIYSYLSWYQQKPGQRPKFLIYDASKVASGVPSRFKGSGSGTEFTLTISAVQSDDAATYYCQQAYSSSNVDNAFGGGTEVMVKR
notes: Rabbit variable domains on human IgG1 / human kappa constant regions; also called chimeric 8B12
Binder B9 has a Kd [7] of 100 to 500 pM, an EC50 [10] of 40 to 80 pM and an EC50 [8] of 1000 to 1500 pM. It also gave an EC50 [9] of roughly 50 pM.

B10: anti-CD38 chimeric monoclonal antibody 18E4 (antibody, human IgG1, kappa, V domains shown)
VH: QSLEESGGDLVKPGASLTLTCTASGFSFNNYWICWIRQAPGKGLEWVACIYSPSGDIKYYANWAKGRFTVSKTSSTTVTLQMTSLTGADTATYFCARELSGSSYEGYFESWGPGTLVTVSS
VL: AQVLTQTPSSVSAAVGGTVTINCQCSQSVYGHNWLAWYQHKPGQPPKLLMYRASNLASGVPSRFKGSGSGSQFTLTIGEVQSDDAATYYCQGYYNGGSYAFGGGTEVVVRR
notes: Rabbit variable domains on human IgG1 / human kappa constant regions; also called chimeric 18E4; Chimeric antibody 18E4
With B10 the EC50 [11] was roughly 50 pM, the EC50 [12] was 300 to 1000 pM and the Kd [13] was 100 to 500 pM. For the same binder, the “CDC on Daudi cells, EC50” value [3] was 1000 to 2000 pM.
